The target of this test is T1, HLA-A2/MAGE-A4 complex (HLA-A*02:01 extracellular domain, human β2m, MAGE-A4 peptide 230-239) (human, UniProt P04439 25-299 at identity 0.94); P61769 21-119).
T1 construct: also called MAGE-A4/HLA-A2 complex; pMHC
As to the kind of experiment: phage display biopanning and screening of the lambda and optimized kappa libraries.

B1: M0861 scFv (scFv)
scFv: QSVKESGGRLVTPGTPLTLTCTVSGFSLSNYAMSWVRQAPGKGLEYIGIVSSGGTTYYASWAKGRFTISKTSTTVDLKITSPTTEDTATYFCAKDLYYGPTTYSAFNLWGQGTLVTISSGGGGSGGGGSGGGGSGGGGASELVLTQPASVQVNLGQTVSLTCTADTLSRSYASWYQLKPGQAPVLLIYRDTSRPSGVPDRFSGSSSGNTATLTISGAQAGDEGDYVCATSDGSGSNFQLFGGGTQLTVTG
notes: Rabbit scFv from the biopanning screen
For the molecule B1, the binding result is listed as “binds”.

B2: M0849 scFv (scFv)
scFv: QEQLEESGGGLVTPGGTLTLTCTVSGFSLSNYAMGWVRQAPGKGLEWIGTINDGGTAFYAKWLKGRFTISRTSTTVDLKITSPTTEDTATYFCARAYGSNGDVYWGYFNLWGQGTLVTISSGGGGSGGGGSGGGGSGGGGASELVMTQTPSSVSEPVGGTVTIKCQASQSIGSNLAWYQQRPGQPPKLLIYSASTLASGVSSRFKGSGSGTESTLTISGVQAADAATYYCQQGYSSSNVDNVFGGGTELEIL
notes: as for B1
Turning to B2, the binding result is given as “binds”.

B3: M0859 scFv (scFv)
scFv: QSVKESGGRLVTPGTPLTLTCTVSGFSLSNYAMSWVRQAPGKGLEYIGIVSSGGTTYYASWAKGRFTISKTSTTVDLKITSPTTEDTATYFCAKDLYYGPTTYSAFNLWGQGTLVTISSGGGGSGGGGSGGGGSGGGGASELVLTQPQSVSGSLGQTVSISCKRARDNIEDYYVHWYQQHPGKTPTIVIHKDDQRPSGVPDRFSGSIDSTSNSASLTITGLLAEDEADYFCQSFDNDASPVFGGGTQLTVTG
notes: as for B1
Take B3: the binding result is on record as “binds”.

B4: M0858 scFv (scFv)
scFv: QSVEESGGRLVTPGTPLTLTCTVSGFSLSNYAMSWVRQAPGKGLEYIGIVSSGGTTYYASWAKGRFTISKTSTTVDLKITSPTTEDTATYFCAKDLYYGPTTYSAFNLWGQGTLVTVSSGGGGSGGGGSGGGGSGGGGASELVLTQPQSVSGSLGQTVSISCKRARNNIEDYYVHWYQQHPGRSPTIVIHKDDQRPSGVPDRFSGSIDSTSNSASLTITGLLAEDEADYFCQSFDNNANPVFGGGTQLTVTG
notes: as for B1
B4: the binding result is listed as “binds”.

B5: M0860 scFv (scFv)
scFv: QSVKESGGRLVTPGTPLTLTCTVSGFSLSNYAMSWVRQAPGKGLEYIGIVSSGGTTYYASWAKGRFTISKTSTTVDLKITSPTTEDTATYFCAKDLYYGPTTYSAFNLWGQGTLVTISSGGGGSGGGGSGGGGSGGGGASELVLTQPQSVSGSLGQTVSISCKRARDNIEDYYVHWYQQYPGKTPTIVIYKDDQRPSGVPDRFSGSIDSTSNSASLTITGLLAEDEADYFCQSFDNNANVVFGGGTQLTVTG
notes: as for B1
With B5, the binding result was “binds”.

B6: M0865 scFv (scFv)
scFv: PAALMESGGRLVTPGTPLTLTCTVSGIDLSTFAMTWVRQAPGKGLEWLGIINTGGSAYYTSWAKGRFTISRTSTTVDLKITSPTTEDTATYFCARGDWSSATDLWGQGTLVTISSGGGGSGGGGSGGGGSGGGGASDPDMTQTPSSVSAAVGGTVTINCQASQSVYDNKVLAWYRQKPGQPPKLLIYKASTLASGVPSRFKGRGSGTQFTLTISGVQADDAATYYCLGEFSCSSADCHAFGGGTELEIL
notes: as for B1
On to B6, for which the binding result is given as “binds”.

B7: M0866 scFv (scFv)
scFv: QSVKESGGRLVTPGTPLTLTCTASGFTISSSAISWVRQAPGKGLEYIGIIRSGGTTDYASWAKGRFAISKTSTTVDLKITSPTTEDTATYFCARDPPYITSTYFDLWGQGTLVTVSSGGGGSGGGGSGGGGSGGGGASELVLTQPQSVSGSLGQTVSISCKRARDSVESYDVHWYQQHPGKTPTIVIYKDDQRPSGVPDRFSGSIDSTSNSASLTITGLLAEDEADYFCQSFDGDAVVFGGGTQLTVTG
notes: as for B1
With B7, the binding result was “binds”.

B8: M0851 scFv (scFv)
scFv: QEQLEESGGGLVTPGTPLTLTCTASGFSLSSYAMIWVRQAPGKGLEWIGTINDGGTAFYASWVKGRFTISRTSTTVDLKITSPTTEDTATYFCARAYGSNGDVYWGYVNLWGQGTLVTISSGGGGSGGGGSGGGGSGGGGASELVMTQTPSSVSAAVGGTVTINCQASQNIGSVFAWYQQKPGQPPKLLIYKASSLASGVPSRFKGSGSGTQFTLTISGVEAADAATYYCQQGASSSNVDNIFGGGTEVVVK
notes: as for B1
With B8, the binding result is “binds”.

B9: M0854 scFv (scFv)
scFv: QSVKESWGRLVTPGGSLTLTCTVSGIDLNNYAMGWVRQAPGKGLEWIGTINNDGATYYPSWARGRFTISKTSTTVDLKITSPTTEDTATYFCARTYGSNGDVYWGYFNLWGQGTLVTVSSGGGGSGGGGSGGGGSGGGGASALELTQTPASVEVAVGGTVTINCQASQSIGGALNWYQQKSGQPPKLLIYLASTLASGVSSRFKGSGSGTQFTLTISGVEAADAATYYCQQGYSASNIDNAFGGGTEVVVK
notes: as for B1
On to B9, for which the binding result was “binds”.

B10: M0864 scFv (scFv)
scFv: QSVKESGGGLVTPGTPLTLTCTVSGFSLSTYAISWVRQAPGKGLEWIGFIDTVDSAYYASWAKGRFTISKTSSTTVDLKMTSPTTEDTATYFCAKLRYGDYGDYTLWGQGTLVTVSSGGGGSGGGGSGGGGSGGGGASELVMTQTPSPVSGAVGGTVTIKCQASQNIYSYLAWYQQKPGQPPKLLIYKASTLASGVPSRVKGSGSGTEYTLTISGVQAADAATYYCQCTYYDSNTFGGGTEVVVK
notes: as for B1
Consider B10, for which the binding result is reported as “binds”.

B11: M0852 scFv (scFv)
scFv: QQQLEESGGGLVTPGTPLTLTCTVSGFSLSNYAMGWVRQAPGKGLEWIGTINDGGTAFYANWLKGRFTISRTSTTVDLKITSPTTEDTATYFCARAYGSNGDVYWGYFNLWGQGTLVTVSSGGGGSGGGGSGGGGSGGGGASELVMTQTASPVSAAVGGTVTINCQASQSISSRSLSWYQQKPGQPPKLLIYEASKLASGVPSRFSGSGSGTQFTLTISGVQADDAATYYCQQGYSSSNVDNVFGGGTEVVVK
notes: as for B1
As for B11, the binding result is on record as “binds”.

B12: M0855 scFv (scFv)
scFv: QQQLEESGGGLVTPGTPLTLTCTVSGIDLSSYAMGWVRQAPGKGLEWIGTINDGGSAFYASWVKGRFTISRTSTTVDLKITSPTAEDTATYFCAKTYGTNGDVYWGYFNLWGQGTLVTISSGGGGSGGGGSGGGGSGGGGASELVMTQTPASVSEPVGGTVTIKCQASQSIGSNLAWYQQKPGQPPKLLIYYESILASGVPSRFSGSGSGTEYTLTISGAQADDAATYYCQQGYSSSNIDNAFGGGTEVVVK
notes: as for B1
B12: the binding result is “binds”.

B13: M0856 scFv (scFv)
scFv: QQQLEESGGGLVTPGTPLTLTCTVSGIDLSSYAMGWVRQAPGKGLEWIGTINDGGSAFYASWVKGRFTISRTSTTVDLKITSPTAEDTATYFCAKTYGTNGDVYWGYFNLWGQGTLVTISSGGGGSGGGGSGGGGSGGGGASELVMTQTPASVSEPVGGTVTIKCQASQSIGSNLAWYQQKPGQPPKLLIYYESILASGVPSRFSGSGSGTEYTLTISGAQADDAATYYCQQGYSSSNILNAFGGGTEVVVK
notes: as for B1
Regarding B13, the binding result was “binds”.

B14: M0848 scFv (scFv)
scFv: QEQLVESGGGLVTPGTPLTLTCTVSGFSLSSYAMGWVRQAPGKGLEWIGTINDGGTAFYASWVKGRFTISRTSTTVDLRVTSPTTEDTATYFCARAYGSNGDVYWGYFNLWGQGTLVTVSSGGGGSGGGGSGGGGSGGGGASELDLTQTPASVEVAVGGTVTIKCQASQSIGSYLSWYQQKPGQRPKLLIFRASTLASGVSSRFKGSGSGTQFTLTISGVECADAATYYCQQGYSSTNLDNVFGGGTEVVVK
notes: as for B1
In the case of B14, the binding result was “binds”.

B15: M0862 scFv (scFv)
scFv: PEQLMESGGGLVTPGGVLTLTCTASGFSFSSYGVNWVRQAPGKGLEWIGFIFGDGTTYYANWAKGRFTISKTSTTVDLKMTSPTTEDTATYFCARDGYGGYDYIINLWGQGTLVTVSSGGGGSGGGGSGGGGSGGGGASAQVLTQTPASVSAAVGGTVSISCQSSQSVVNNNWLAWYQQKPGQPPKLLIYKASTLESGVPSRFKGSGSGTQFTLTISGVQADDAATYYCLGEFSCSSADCHAFGGGTELEIL
notes: as for B1
Consider B15, for which the binding result is “binds”.

B16: M0863 scFv (scFv)
scFv: PEQLMESGGGLVTPGGVLTLTCTASGFSFSSYGVNWVRQAPGKGLEWIGFIFGDGTTYYANWAKGRFTISKTSTTVDLKMTSPTTEDTATYFCARDGYGGYDYIINLWGQGTLVTVSSGGGGSGGGGSGGGGSGGGGASAQVLTQTPASVSAAVGGTVSISCQSSQSVVNNNWLAWYQQKPGQPPKLLIYKASTLESGVPSRFKGSGSGTQFTLTISGVQADDAATYYCQGAYSGNIYYNAFGGGTEVVVK
notes: as for B1
Regarding B16, the binding result is recorded as “binds”.

B17: M0857 scFv (scFv)
scFv: QQQLVESGGRLVTPGTPLTLTCTASGIDLNSNAMSWVRQGPGKGLEWIGDIWSGGYTDYASWAKGRFTISKTSTTVDLKMTSLTAADTATYFCARDRLAGDGVVDYDLWGQGTLVTISSGGGGSGGGGSGGGGSGGGGASELDMTQTPASVEVAVGGTVTIKCQASQNIYSNLAWYQQKPGQRPKLLIYGASTLASGVPSRFKGSGSGTEYTLTINGVQAADAATYYCQQGFSSSNVDNVFGGGTEVVVK
notes: as for B1
With B17, the binding result is reported as “binds”.

B18: M0853 scFv (scFv)
scFv: QQQLVESGGGLVTPGTPLTLTCTVSGFSLSNYAMGWVRQAPGKGLEWIGTINDGGTAFYANWLKGRFTISRTSTTVDLKITSPTTEDTATYFCARAYGSNGDVYWGYFNLWGQGTLVTVSSGGGGSGGGGSGGGGSGGGGASELVMTQTASPVSAAVGGTVTINCQASQSISSRSLSWYQQKPGQPPKLLIYEASKLASGVPSRFSGSGSGTQFTLTISGVQADDAATYYCQQGYSSSNVDNFGGGTEVVVK
notes: as for B1
In the case of B18, the binding result was “binds”.

B19: M0850 scFv (scFv)
scFv: QEQLEESGGGLVTPGTPLTLTCTASGFSLSSYAMIWVRQAPGKGLEWIGTINDGGTAFYANWVKGRFTISRTSTTVDLKMTSPTTEDTATYFCARAYGSNGDVYWGYVNLWGQGTLVTVSSGGGGSGGGGSGGGGSGGGGASELVMTQTPASVSEPVGGTVTIKCQASQSIGSNLAWYQQKPGQPPKLLIYAAANLASGVSSRFKGSRSGTEYTLTISGVQAADAATYYCQQGYSSSNVANVFGGGTELEIL
notes: as for B1
B19: the binding result is given as “binds”.

Source of the values: patent US20220340894A1 (CDR LIFE, published 2022).
